Source: US20060257938A1, “Method of screening for drugs that block ligand binding to a lipid binding protein” (priority 2005, published 2006)
Where “and” joins values, the source holds several entries; their conditions need not be identical. Equal values may be shown once.

Experiments:
Assay type in all cases: binding
[1] = Probe fluorescence ratio response to oleic acid relative to ADIFAB2; settings: response relative to ADIFAB2
Text: (§1) In an alternate preferred embodiment, the protein is rI-FABP that has Ala substituted for Leu at position 72 (rI-FABP-L72A) with the resulting probe named ADIFAB2. […] Other probes useful in embodiments of the invention are shown in Tables 1-6 and are also described in U.S. application Ser. No. 11/085,792, filed Mar. 21, 2005 which is incorporated herein by reference. The indicated substitutions are with reference to the ADIFAB protein of SEQ ID NO: 2.
(§2) ADIFAB2 also has an altered spectral response, making it especially useful for measurements of FFAu in blood samples (Apple et al, Clinical Proteomics, (2004) 1:41-44, U.S. patent application Ser. No. 10/670,958). The wavelengths at the maximum intensities emitted by these fluorescently-labeled I-FABP's in the absence of FFA is about 420 to 480 nm. The emission wavelengths at the maximum intensities emitted by these fluorescently-labeled I-FABP's with FFA bound are between about 495 to 580 nm. Experiments typically involve measuring the fluorescence response within both emission maxima or at wavelengths for which the effect of interfering molecules such as hemoglobin can be eliminated as described in U.S. application Ser. No. 10/670958 and PCT/US2004/030521 and the calculation of the ratio ‘R’ of the two fluorescence intensities. The baseline value for this ratio, measured in the absence of analyte, is designated R0.
(§3) The intensity ratio (“R” value) is determined as follows. The ratio is calculated using the following formula: R=Fλ1/Fλ2 wherein, Fλ1 is the measured fluorescence intensities (intensity of sample with probe present minus intensity of sample without probe present) at wavelength 1 and Fλ2 is the measured fluorescence intensities (intensity of sample with probe present minus intensity of sample without probe present) at wavelength 2. Then, for a given probe, ΔR, the difference in R value between the measurement in the presence of the test compound (agent) and in the absence of the test compound (agent), is calculated as follows: ΔR=R+agent−R0 In some embodiments, the ΔR value may then be compared to some reference, for example, an agent with a known affinity for a given probe, by ΔR/ΔRreference. Measurements of fluorescence intensities are obtained using standard techniques.

[2] = Probe fluorescence ratio response to linoleic acid relative to ADIFAB2; settings: response relative to ADIFAB2
Text: as §1, §2, §3

[3] = Probe fluorescence ratio response to palmitic acid relative to ADIFAB2; settings: response relative to ADIFAB2
Text: as §1, §2, §3

[4] = Probe fluorescence ratio response to arachidonic acid relative to ADIFAB2; settings: arachidonic acid; response relative to ADIFAB2
Text: as §1, §2, §3

[5] = Probe fluorescence ratio response to linolenic acid relative to ADIFAB2; settings: response relative to ADIFAB2
Text: as §1, §2, §3

| Molecule | DR/DR OA [1] | DR/DR LA [2] | DR/DR PA [3] | DR/DR AA [4] | DR/DR LNA [5] |
| --- | --- | --- | --- | --- | --- |
| 117S, 72A (protein, listed as Rattus norvegicus, PEPTIDE (1)...(131) wild-type rat intestinal fatty acid binding protein) AFDGTWKVDRNENYEKFMEKMGINVVKRKLGAHDNLKLTITQEGNKFTVKESSNFRNIDVVFELGVDFAYSAADGTELTGTWTMEGNKLVGKFKRVDNGKELIAVREISGNELIQTSTYEGVEAKRIFKKE | 1.19 and 1.258 | 1.42 and 1.533 | 0.55 and 0.593 | 1.35 and 1.467 | 1.07 and 1.133 |
| 119F, 72A (protein, listed as Rattus norvegicus, PEPTIDE (1)...(131) wild-type rat intestinal fatty acid binding protein) AFDGTWKVDRNENYEKFMEKMGINVVKRKLGAHDNLKLTITQEGNKFTVKESSNFRNIDVVFELGVDFAYSAADGTELTGTWTMEGNKLVGKFKRVDNGKELIAVREISGNELIQTYTFEGVEAKRIFKKE | 0.94 | 0.90 | 0.69 | 0.93 | 0.93 |
| 119H, 72A (protein, listed as Rattus norvegicus, PEPTIDE (1)...(131) wild-type rat intestinal fatty acid binding protein) AFDGTWKVDRNENYEKFMEKMGINVVKRKLGAHDNLKLTITQEGNKFTVKESSNFRNIDVVFELGVDFAYSAADGTELTGTWTMEGNKLVGKFKRVDNGKELIAVREISGNELIQTYTHEGVEAKRIFKKE | 0.59 | 0.63 | 0.32 | 0.71 | 0.67 |
| 119I, 72A (protein, listed as Rattus norvegicus, PEPTIDE (1)...(131) wild-type rat intestinal fatty acid binding protein) AFDGTWKVDRNENYEKFMEKMGINVVKRKLGAHDNLKLTITQEGNKFTVKESSNFRNIDVVFELGVDFAYSAADGTELTGTWTMEGNKLVGKFKRVDNGKELIAVREISGNELIQTYTIEGVEAKRIFKKE | 1.08 and 1.050 | 1.10 and 0.960 | 0.69 and 0.720 | 1.01 and 0.920 | 1.06 and 0.940 |
| 119Q, 72A (protein, listed as Rattus norvegicus, PEPTIDE (1)...(131) wild-type rat intestinal fatty acid binding protein) AFDGTWKVDRNENYEKFMEKMGINVVKRKLGAHDNLKLTITQEGNKFTVKESSNFRNIDVVFELGVDFAYSAADGTELTGTWTMEGNKLVGKFKRVDNGKELIAVREISGNELIQTYTQEGVEAKRIFKKE | 0.60 | 0.58 | 0.35 | 0.60 | 0.62 |
| 117V, 72A (protein, listed as Rattus norvegicus, PEPTIDE (1)...(131) wild-type rat intestinal fatty acid binding protein) AFDGTWKVDRNENYEKFMEKMGINVVKRKLGAHDNLKLTITQEGNKFTVKESSNFRNIDVVFELGVDFAYSAADGTELTGTWTMEGNKLVGKFKRVDNGKELIAVREISGNELIQTVTYEGVEAKRIFKKE | 0.81 and 0.774 | 0.94 and 0.924 | 0.49 and 0.498 | 0.82 and 0.805 | 0.81 and 0.767 |
| 117W, 72A (protein, listed as Rattus norvegicus, PEPTIDE (1)...(131) wild-type rat intestinal fatty acid binding protein) AFDGTWKVDRNENYEKFMEKMGINVVKRKLGAHDNLKLTITQEGNKFTVKESSNFRNIDVVFELGVDFAYSAADGTELTGTWTMEGNKLVGKFKRVDNGKELIAVREISGNELIQTWTYEGVEAKRIFKKE | 0.39 and 0.388 | 0.45 and 0.446 | 0.34 and 0.339 | 0.55 and 0.551 | 0.46 and 0.461 |
| 119G, 72A (protein, listed as Rattus norvegicus, PEPTIDE (1)...(131) wild-type rat intestinal fatty acid binding protein) AFDGTWKVDRNENYEKFMEKMGINVVKRKLGAHDNLKLTITQEGNKFTVKESSNFRNIDVVFELGVDFAYSAADGTELTGTWTMEGNKLVGKFKRVDNGKELIAVREISGNELIQTYTGEGVEAKRIFKKE | 0.78 | 0.77 | 0.46 | 0.83 | 0.81 |
| 102E, 72A (protein, listed as Rattus norvegicus, PEPTIDE (1)...(131) wild-type rat intestinal fatty acid binding protein) AFDGTWKVDRNENYEKFMEKMGINVVKRKLGAHDNLKLTITQEGNKFTVKESSNFRNIDVVFELGVDFAYSAADGTELTGTWTMEGNKLVGKFKRVDNGKEEIAVREISGNELIQTYTYEGVEAKRIFKKE | 0.60 | 0.65 | 0.30 | 0.56 | 0.89 |
| 119A, 72A (protein, listed as Rattus norvegicus, PEPTIDE (1)...(131) wild-type rat intestinal fatty acid binding protein) AFDGTWKVDRNENYEKFMEKMGINVVKRKLGAHDNLKLTITQEGNKFTVKESSNFRNIDVVFELGVDFAYSAADGTELTGTWTMEGNKLVGKFKRVDNGKELIAVREISGNELIQTYTAEGVEAKRIFKKE | 0.63 and 0.490 | 0.61 and 0.450 | 0.30 and 0.200 | 0.70 and 0.540 | 0.65 and 0.520 |
| 117Y, 72A (protein, listed as Rattus norvegicus, PEPTIDE (1)...(131) wild-type rat intestinal fatty acid binding protein) AFDGTWKVDRNENYEKFMEKMGINVVKRKLGAHDNLKLTITQEGNKFTVKESSNFRNIDVVFELGVDFAYSAADGTELTGTWTMEGNKLVGKFKRVDNGKELIAVREISGNELIQTYTYEGVEAKRIFKKE | 1.36 | 1.44 | 1.14 | 1.35 | 1.40 |
| 117T, 72A (protein, listed as Rattus norvegicus, PEPTIDE (1)...(131) wild-type rat intestinal fatty acid binding protein) AFDGTWKVDRNENYEKFMEKMGINVVKRKLGAHDNLKLTITQEGNKFTVKESSNFRNIDVVFELGVDFAYSAADGTELTGTWTMEGNKLVGKFKRVDNGKELIAVREISGNELIQTTTYEGVEAKRIFKKE | 0.81 and 0.813 | 0.92 and 0.917 | 0.57 and 0.567 | 0.79 and 0.791 | 0.77 and 0.775 |
| 119C, 72A (protein, listed as Rattus norvegicus, PEPTIDE (1)...(131) wild-type rat intestinal fatty acid binding protein) AFDGTWKVDRNENYEKFMEKMGINVVKRKLGAHDNLKLTITQEGNKFTVKESSNFRNIDVVFELGVDFAYSAADGTELTGTWTMEGNKLVGKFKRVDNGKELIAVREISGNELIQTYTCEGVEAKRIFKKE | 0.97 and 0.971 | 1.02 and 1.022 | 0.35 and 0.355 | 1.06 and 1.063 | 1.00 and 1.001 |
| 119K, 72A (protein, listed as Rattus norvegicus, PEPTIDE (1)...(131) wild-type rat intestinal fatty acid binding protein) AFDGTWKVDRNENYEKFMEKMGINVVKRKLGAHDNLKLTITQEGNKFTVKESSNFRNIDVVFELGVDFAYSAADGTELTGTWTMEGNKLVGKFKRVDNGKELIAVREISGNELIQTYTKEGVEAKRIFKKE | 0.87 | 0.85 | 0.58 | 0.78 | 0.78 |
